Measured values reported in doi:10.1101/2020.02.28.970301, “Picomolar affinity antagonist and sustained signaling agonist peptide ligands for the adrenomedullin and calcitonin gene-related peptide receptors” (bioRxiv, 2020).

Molecular target: T1, CLR ECD (29-144) as it stands in MBP-RAMP2.55-140[L106R]-(GSA)3-CLR.29-144-H6 (human, UniProt Q16602 29-144)
T1 construct: calcitonin receptor-like receptor (CLR), human, extracellular domain, residues 29-144; joined to m5 on one chain by the (GSA)3 linker in the crystallised fusion m4; source: E. coli, purified (as part of the fusion m4); not shown: His6, C-terminal, kept
Test: crystal structure; bacterially expressed MBP-RAMP2 ECD-(GSA)3-CLR ECD mixed with peptide 1:1.2; hanging drop, 20% PEG MME 5000, 0.1 M sodium HEPES pH 8.2, 150 mM sodium formate, 3% DMSO; 1.83 Å
Details: both partners purified

T1 sequence (Q16602 29-144, stated change not applied): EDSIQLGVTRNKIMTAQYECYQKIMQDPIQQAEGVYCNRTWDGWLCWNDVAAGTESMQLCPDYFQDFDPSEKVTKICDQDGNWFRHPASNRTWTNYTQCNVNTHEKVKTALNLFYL

binding result: binds
B1: RAMP2 ECD (55-140, L106R) as it stands in MBP-RAMP2.55-140[L106R]-(GSA)3-CLR.29-144-H6 (domain or fragment, human, UniProt O60895 55-140, looked up)
chain: GGTVKNYETAVQFCWNHYKDQMDPIEKDWCDWAMISRPYSTLRDCLEHFAERFDLGFPNPLAERIIFETHQIHFANCSLVQPTFSD
notes: receptor activity-modifying protein 2 (RAMP2), human, extracellular domain, residues 55-140; joined to m6 on one chain by the (GSA)3 linker in the crystallised fusion m4; source: E. coli, purified (as part of the fusion m4); not shown: MBP, N-terminal, kept
